The values that follow are results of earlier work, collected in patent EP1666054A1, “Method for administering insulinotropic peptides” (priority 1998, dated 2006).

The conditions of this data set: pulmonary delivery; calculated, background statement.

For the substance parathyroid hormone (1-34), the “Absorption values (delivered through the lungs)” value was “fifteen”.
